# Measurements: patent US20180339043A1 (JANUX THERAPEUTICS, published 2018)
# Primed or numbered codes have the meaning given here. Ends that are not written are not given here. Biotin′ = not defined here
# T1: Peptide 15 with C-terminal biotin (Example 13) (not fully specified; cysteine pairing not given here)
# T1 peptide: GGPCNQVECHHQFT-{Biotin′}
# Legend:
# [1] = molecular target: T2, anti-mouse CTLA-4 antibody (clone 9D9); assay: competition ELISA: 0.3 nM anti-CTLA Ab / 30 min with peptide, then on mouse CTLA-4 (Example 11); competitor mouse CTLA-4
# T2 construct: also called 9D9 antibody; anti-CTLA4
# Method: (§1) Following this incubation the peptide-antibody complexes were transferred to mouse CTLA-4 coated and blocked ELISA plates and incubated further. Following a brief binding period the plates were washed and target bound antibody was detected by either anti-mouse Fc or anti-mouse kappa chain HRP conjugated antibodies using standard TMB-based chromogenic ELISA procedures. The effects of competition were determined by standard IC50 analysis.
# [2] = molecular target: T3, PD-L1 antibody; assay: dissociation ELISA: PD-L1 antibody dilution series on immobilised biotinylated peptide, incubation at pH 5.4
# T3 construct: also called anti-PD-L1
# [3] = molecular target: T3, PD-L1 antibody; assay: dissociation ELISA: PD-L1 antibody dilution series on immobilised biotinylated peptide
# [4] = molecular target: T3, PD-L1 antibody; assay: dissociation ELISA: PD-L1 antibody dilution series on immobilised biotinylated peptide, incubation at pH 7.2
# [5] = molecular target: T3, PD-L1 antibody; assay: dissociation ELISA: PD-L1 antibody dilution series on immobilised biotinylated peptide, incubation at pH 6.0
# [6] = molecular target: T1, Peptide 15 with C-terminal biotin …; assay: ELISA, biotinylated Peptide 15 on Neutravidin, Fab titrated at pH 7.4 (Example 13)
# Method: After washing in PBS-T, mCTLA-4 Fab diluted in either pH 7.4 Binding Buffer (50 mM sodium phosphate+150 mM NaCl+0.5% BSA+0.05% Tween-20, pH 7.4) or pH 6.0 Binding Buffer (50 mM sodium phosphate+150 mM NaCl+0.5% BSA+0.05% Tween-20, pH 6.0) was captured for 1 hour. After capture, wells were washed with either pH 7.4 Binding Buffer or pH 6.0 Binding Buffer, followed by additional 5-minute incubation with the appropriate pH Binding Buffer. Detection was performed with HRP conjugated goat anti-mouse IgG H+L (Southern Biotech.) for 1 hour at 1/2000 dilution in PBS-T+0.5% BSA followed by TMB (3-minute development) with acid stop. […] Data is expressed as mean+SD. All ELISA steps were performed at room temperature.
# [7] = molecular target: T2, anti-mouse CTLA-4 antibody (clone 9D9); assay: competition ELISA: 0.3 nM anti-CTLA Ab / 30 min with peptide, then on mouse CTLA-4 (Example 11)
# Method: as §1
Binder,binding result [1],EC50 [2] [nM],pH 5.4: pH 7.2 EC 50 ratio [3],pH 6.0: pH 7.2 EC 50 ratio [3],EC50 [4] [nM],EC50 [5] [nM],EC50 (read off the curve) [6] [nM],binding result [7]
"GGCHNKSGLFYHYC (cysteine pairing not given here; also: biotinylated, chemically synthesized biotinylated peptide) [Peptide 24]",,1.3,6.6,2.8,0.2,0.56,,
"anti-mouse CTLA-4 (clone 9D9) Fab fragment (Fab, V domains shown, Monovalent Fab fragment of 9D9; also called mCTLA-4 Fab; a-mCTLA-4 Fab) VH: EAKLQESGPVLVKPGASVKMSCKASGYTFTDYYMNWVKQSHGKSLEWIGVINPYNGDTSYNQKFKGKATLTVDKSSSTAYMELNSLTSEDSAVYYCARYYGSWFAYWGQGTLITVST VL: DIVMTQTTLSLPVSLGDQASISCRSSQSIVHSNGNTYLEWYLQKPGQSPKLLIYKVSNRFSGVPDRFSGSGSGTDFTLKISRVEAEDLGVYYCFQGSHVPYTFGGGTKLEIKR",,,,,,,~200,
"GGHCVDMVDFYQQTCQ (cysteine pairing not given here; also: biotinylated, Chemically synthesized biotinylated peptide; also called 23 (Control)) [Peptide 23]",,3.9,12.9,4.3,0.3,1.3,,no binding (tested: 50 uM)
"GGMCHELFYSNLNWCQ (cysteine pairing not given here; also: biotinylated, chemically synthesized biotinylated peptide) [Peptide 22]",,0.35,7.8,1.5,0.045,0.07,,

# Further lines, results first:
binding result [1],EC50 [2] [nM],pH 5.4: pH 7.2 EC 50 ratio [3],pH 6.0: pH 7.2 EC 50 ratio [3],EC50 [4] [nM],EC50 [5] [nM],EC50 (read off the curve) [6] [nM],binding result [7],Binder
binds,,,,,,,,GGCPSLHPQWIHVC [Peptide 16]
binds,,,,,,,,GGCQIHDPHTWHLC [Peptide 19]
,0.84,6.7,1.7,0.13,0.21,,,"QLFYPSTYHIID (also: biotinylated, chemically synthesized biotinylated peptide) [Peptide 20]"
,1.5,6.5,2.1,0.23,0.49,,,"GGLCSTFYEPQVDICY (cysteine pairing not given here; also: biotinylated, chemically synthesized biotinylated peptide) [Peptide 29]"
